From patent US20230038638A1, “COMPLEMENT FACTOR I-RELATED COMPOSITIONS AND METHODS” (published 2023)
Where a chain is given by its changes, count along the chain named.

Tests used:
human C4b (human) [1] = biological target: T1, human C4b (human) (UniProt P0C0L5)
T1 sequence: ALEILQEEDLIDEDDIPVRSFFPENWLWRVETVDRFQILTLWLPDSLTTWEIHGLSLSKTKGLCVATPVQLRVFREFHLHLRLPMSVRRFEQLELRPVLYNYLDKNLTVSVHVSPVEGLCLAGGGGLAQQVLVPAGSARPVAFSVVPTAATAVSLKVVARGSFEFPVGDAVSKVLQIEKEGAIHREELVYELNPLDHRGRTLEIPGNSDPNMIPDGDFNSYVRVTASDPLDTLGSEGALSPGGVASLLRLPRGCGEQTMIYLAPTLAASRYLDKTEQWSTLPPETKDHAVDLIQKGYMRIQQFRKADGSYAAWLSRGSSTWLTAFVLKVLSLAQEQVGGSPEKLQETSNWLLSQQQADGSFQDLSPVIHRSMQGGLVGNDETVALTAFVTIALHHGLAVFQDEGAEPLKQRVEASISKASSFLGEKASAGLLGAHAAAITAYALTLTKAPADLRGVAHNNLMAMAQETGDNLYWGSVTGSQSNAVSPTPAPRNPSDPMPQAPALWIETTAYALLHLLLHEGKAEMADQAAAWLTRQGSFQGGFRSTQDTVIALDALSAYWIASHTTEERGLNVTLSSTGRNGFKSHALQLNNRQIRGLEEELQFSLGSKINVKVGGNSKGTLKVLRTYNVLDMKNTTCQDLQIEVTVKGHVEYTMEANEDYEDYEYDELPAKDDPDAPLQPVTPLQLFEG

[2] = biological target: soluble human C3b (human) (UniProt P01024)
human C4b (human) [3] = biological target: T2, human C4b (human) (UniProt P0C0L4)
T2 sequence: T1 sequence with T151A, G317D, L364P, S365C, I368L, H369D, S420N, A451V, R454L, A530S

Substance | C4b Screen Ref Fold (fold of CFI-HSA wild type) (human C4b (human) [1]) | iC3b Screen Ref Fold (fold of CFI-HSA wild type) [2] | C4c EC50 (human C4b (human) [3]) | C4c EC50 (nM) (human C4b (human) [3]) | C4b Screen Ref Fold (fold vs CFI-HSA wild type) (human C4b (human) [1]) | iC3b Screen Ref Fold (fold vs CFI-HSA wild type) [2]
CFI-HSA variant F464G (enzyme) | 0.24 | 0.01 | > 1000 nM |  |  | 
CFI-HSA variant Y408L; D425R; E416A (enzyme) | 0.43 | 2.26 |  | 221 nM |  | 
CFI-HSA variant Y408P (enzyme) |  |  |  | 338 nM | -0.01 | 0.02
CFI-HSA variant E457G; N531G; P535G; D425K (enzyme) | 5.2 | 1.3 | 39.4 nM |  |  | 
CFI-HSA variant S552G; Y553H; F559L; V565I (enzyme) | 3.1 | 0.27 | 83.6 nM |  |  | 
CFI-HSA variant R321A (enzyme) |  |  |  | 897 nM | 0.22 | 0.55
CFI-HSA variant E457G; N531G; E416A (enzyme) | 5.02 | 2.66 |  | 5.4 nM |  | 
CFI-HSA variant Y408L; N531G; P558S (enzyme) | 5.11 | 1.05 | 77.5 nM |  |  | 
CFI-HSA variant N531G; K534Q (enzyme) | 5.23 | 1.39 | 43.5 nM |  |  | 
CFI-HSA variant Y408L; N531G; E457G (enzyme) |  |  |  | 94.4 nM | 6.16 | 0.63
CFI-HSA variant Y20F; E38A; S250A; D425A; Y408L; N531G; E457G; E461Q; R462K; F464Y (enzyme) |  |  |  | 106 nM | 6.31 | 0.77
CFI-HSA variant E457G; N531G; P535G; N422K (enzyme) | 4.46 | 1.87 | 51.6 nM |  |  | 
CFI-HSA variant Y408L; E457G; N422K (enzyme) | 3.1 | 1.87 | 43.6 nM |  |  | 
CFI-HSA variant Y408L; E457G; N531G; P535G (enzyme) | 5.28 | 1.06 | 50.5 nM |  |  | 
CFI-HSA variant S552G; Y553H; V565I (enzyme) | 2.57 | 0.37 | 207 nM |  |  | 
CFI-HSA variant Y408L; E457G; N531G; K534Q (enzyme) | 5.16 | 0.54 | 26.4 nM |  |  | 
CFI-HSA variant E457G; K534Q (enzyme) | 5.24 | 1.15 | 55.2 nM |  |  | 
CFI-HSA variant Y408L; E457G; P558S (enzyme) | 4.59 | 0.97 | 67.3 nM |  |  | 
CFI-HSA variant N531G; P558S (enzyme) | 5.28 | 1.35 | 63.2 nM |  |  | 
CFI-HSA variant Y408L; E457G; D425R; E416A (enzyme) | 2.03 | 3.02 |  | 181 nM |  | 

Other lines, results leading:

C4b Screen Ref Fold (fold of CFI-HSA wild type) (human C4b (human) [1]) | iC3b Screen Ref Fold (fold of CFI-HSA wild type) [2] | C4c EC50 (human C4b (human) [3]) | C4c EC50 (nM) (human C4b (human) [3]) | C4b Screen Ref Fold (fold vs CFI-HSA wild type) (human C4b (human) [1]) | iC3b Screen Ref Fold (fold vs CFI-HSA wild type) [2] | Substance
4.68 | 1.2 | 21.1 nM |  |  |  | CFI-HSA variant Y408L; E457G; N531G; P535G; K534Q (enzyme)
2.94 | 1.38 | 65.4 nM |  |  |  | CFI-HSA variant Y408L; N531G; P535G; D425K (enzyme)
 |  |  | 79.9 nM | 6.12 | 0.51 | CFI-HSA variant Y408L; N531G; E457G; E461Q; F464Y (enzyme)
 |  |  | 163 nM | 5.78 | 0.86 | CFI-HSA variant Y408L; E457G; E461Q; R462K; F464Y (enzyme)
 |  |  | 470 nM | 1.4 | 1.63 | CFI-HSA variant E530D-N531G; G533A-K534Q-P535K-E536N (enzyme)
2.42 | 0.23 | 224 nM |  |  |  | CFI-HSA variant S552G; Y553H; F559L (enzyme)
2.64 | 3.03 |  | 81.4 nM |  |  | CFI-HSA variant N531G; D425R; E416A (enzyme)
 |  |  | 118 nM | 5.22 | 1.02 | CFI-HSA variant Y408L; N531G; P535A (enzyme)
4.98 | 1.04 | 65.9 nM |  |  |  | CFI-HSA variant E457G; P558S (enzyme)
2.11 | 2.51 |  | 170 nM |  |  | CFI-HSA variant Y408L; E457G; E416A (enzyme)
5.13 | 1.03 | 64.3 nM |  |  |  | CFI-HSA variant Y408L; N531G; K534Q (enzyme)
4.13 | 0.52 | 85.5 nM | 166 nM |  |  | CFI-HSA variant Y553H (enzyme)
 |  |  | 60 nM | 6.07 | 0.64 | CFI-HSA variant Y408L; N531G; E457G; E461Q; R462K (enzyme)
3.64 | 1.77 | 59.7 nM |  |  |  | CFI-HSA variant Y408L; E457G; N531G; P535G; N422K (enzyme)
2.14 | 0.63 | 122 nM |  |  |  | CFI-HSA variant Y553H; P558S (enzyme)
5.01 | 1.12 | 32.2 nM |  |  |  | CFI-HSA variant Y408L; E457G; N531G; P535G; D425K (enzyme)
5.27 | 0.86 | 26.6 nM |  |  |  | CFI-HSA variant Y408L; E457G; N531G; P558S (enzyme)
 |  |  | 82.7 nM | 5.97 | 0.92 | CFI-HSA variant Y408L; N531G; E461Q; R462K; F464Y (enzyme)
5.48 | 1.27 | 54 nM |  |  |  | CFI-HSA variant E457G; N531G; P535G (enzyme)
 |  |  | 65.2 nM | 5.5 | 0.69 | CFI-HSA variant E457G; E461Q-R462K; F464Y (enzyme)
 |  |  | 51.5 nM | 6.68 | 1.21 | CFI-HSA variant Y408L; N531G; E461Q (enzyme)
0.78 | 1.07 | > 1000 nM |  |  |  | CFI-HSA variant K488E (enzyme)
 |  |  | 90.2 nM | 3.98 | 0.89 | CFI-HSA variant Y408L; E457G; E461Q; R462K (enzyme)
 |  |  | 37.9 nM | 5.97 | 0.83 | CFI-HSA variant E457G; N531G; E461Q; R462K; F464Y (enzyme)
